According to patent publication US12679878B2, “CRF2 receptor agonists and their use in therapy” (SANOFI, priority 2020, dated 2026):
Starred links: 1 amine or outer side, 2 acyl side, 3 side chain; linkers in the order of their positions; H or OH if unused. Non-standard residues stand in square brackets, D forms with d. Groups on a side chain read outwards from the residue. No end group written: not given here. *: point of attachment. C20 diacid = O=C(O)CCCCCCCCCCCCCCCCCCC(=O)*; C18 diacid = O=C(O)CCCCCCCCCCCCCCCCC(=O)*; C16 diacid = O=C(O)CCCCCCCCCCCCCCC(=O)*; γGlu = O=C(O)[C@H](CCC(=O)[*:2])N[*:1]; Palmitoyl = CCCCCCCCCCCCCCCC(=O)*; AEEA = NCCOCCOCC(=O)O; Aib = CC(C)(N)C(=O)O

B1: SEQ ID NO: 22 (peptide)
peptide: IVLSLDVPIKLK([AEEA-AEEA-γGlu-C18 diacid])QILLKQERQK[Aib]QRQKAEKNKQILAQV-NH2
modifications: N-terminus assumed
SMILES: CC[C@H](C)[C@H](N)C(=O)N[C@H](C(=O)N[C@@H](CC(C)C)C(=O)N[C@@H](CO)C(=O)N[C@@H](CC(C)C)C(=O)N[C@@H](CC(=O)O)C(=O)N[C@H](C(=O)N1CCC[C@H]1C(=O)N[C@H](C(=O)N[C@@H](CCCCN)C(=O)N[C@@H](CC(C)C)C(=O)N[C@@H](CCCCNC(=O)COCCOCCNC(=O)COCCOCCNC(=O)CC[C@H](NC(=O)CCCCCCCCCCCCCCCCC(=O)O)C(=O)O)C(=O)N[C@@H](CCC(N)=O)C(=O)N[C@H](C(=O)N[C@@H](CC(C)C)C(=O)N[C@@H](CC(C)C)C(=O)N[C@@H](CCCCN)C(=O)N[C@@H](CCC(N)=O)C(=O)N[C@@H](CCC(=O)O)C(=O)N[C@@H](CCCNC(=N)N)C(=O)N[C@@H](CCC(N)=O)C(=O)N[C@@H](CCCCN)C(=O)NC(C)(C)C(=O)N[C@@H](CCC(N)=O)C(=O)N[C@@H](CCCNC(=N)N)C(=O)N[C@@H](CCC(N)=O)C(=O)N[C@@H](CCCCN)C(=O)N[C@@H](C)C(=O)N[C@@H](CCC(=O)O)C(=O)N[C@@H](CCCCN)C(=O)N[C@@H](CC(N)=O)C(=O)N[C@@H](CCCCN)C(=O)N[C@@H](CCC(N)=O)C(=O)N[C@H](C(=O)N[C@@H](CC(C)C)C(=O)N[C@@H](C)C(=O)N[C@@H](CCC(N)=O)C(=O)N[C@H](C(N)=O)C(C)C)[C@@H](C)CC)[C@@H](C)CC)[C@@H](C)CC)C(C)C)C(C)C
B2: SEQ ID NO: 222 (peptide)
peptide: IVLSLD[dV]PTKLK([γGlu-C16 diacid])QKLLKQERQRKEREQAEKNVRILERV-NH2
modifications: N-terminus assumed
SMILES: CC[C@H](C)[C@H](N)C(=O)N[C@H](C(=O)N[C@@H](CC(C)C)C(=O)N[C@@H](CO)C(=O)N[C@@H](CC(C)C)C(=O)N[C@@H](CC(=O)O)C(=O)N[C@@H](C(=O)N1CCC[C@H]1C(=O)N[C@H](C(=O)N[C@@H](CCCCN)C(=O)N[C@@H](CC(C)C)C(=O)N[C@@H](CCCCNC(=O)CC[C@H](NC(=O)CCCCCCCCCCCCCCC(=O)O)C(=O)O)C(=O)N[C@@H](CCC(N)=O)C(=O)N[C@@H](CCCCN)C(=O)N[C@@H](CC(C)C)C(=O)N[C@@H](CC(C)C)C(=O)N[C@@H](CCCCN)C(=O)N[C@@H](CCC(N)=O)C(=O)N[C@@H](CCC(=O)O)C(=O)N[C@@H](CCCNC(=N)N)C(=O)N[C@@H](CCC(N)=O)C(=O)N[C@@H](CCCNC(=N)N)C(=O)N[C@@H](CCCCN)C(=O)N[C@@H](CCC(=O)O)C(=O)N[C@@H](CCCNC(=N)N)C(=O)N[C@@H](CCC(=O)O)C(=O)N[C@@H](CCC(N)=O)C(=O)N[C@@H](C)C(=O)N[C@@H](CCC(=O)O)C(=O)N[C@@H](CCCCN)C(=O)N[C@@H](CC(N)=O)C(=O)N[C@H](C(=O)N[C@@H](CCCNC(=N)N)C(=O)N[C@H](C(=O)N[C@@H](CC(C)C)C(=O)N[C@@H](CCC(=O)O)C(=O)N[C@@H](CCCNC(=N)N)C(=O)N[C@H](C(N)=O)C(C)C)[C@@H](C)CC)C(C)C)[C@@H](C)O)C(C)C)C(C)C
B3: SEQ ID NO: 184 (peptide)
peptide: IVLSLD[dV]PIKLK(C18 diacid)QILLKQERQKKQRQQAEKNKQILAQV-NH2
modifications: N-terminus assumed
SMILES: CC[C@H](C)[C@H](N)C(=O)N[C@H](C(=O)N[C@@H](CC(C)C)C(=O)N[C@@H](CO)C(=O)N[C@@H](CC(C)C)C(=O)N[C@@H](CC(=O)O)C(=O)N[C@@H](C(=O)N1CCC[C@H]1C(=O)N[C@H](C(=O)N[C@@H](CCCCN)C(=O)N[C@@H](CC(C)C)C(=O)N[C@@H](CCCCNC(=O)CCCCCCCCCCCCCCCCC(=O)O)C(=O)N[C@@H](CCC(N)=O)C(=O)N[C@H](C(=O)N[C@@H](CC(C)C)C(=O)N[C@@H](CC(C)C)C(=O)N[C@@H](CCCCN)C(=O)N[C@@H](CCC(N)=O)C(=O)N[C@@H](CCC(=O)O)C(=O)N[C@@H](CCCNC(=N)N)C(=O)N[C@@H](CCC(N)=O)C(=O)N[C@@H](CCCCN)C(=O)N[C@@H](CCCCN)C(=O)N[C@@H](CCC(N)=O)C(=O)N[C@@H](CCCNC(=N)N)C(=O)N[C@@H](CCC(N)=O)C(=O)N[C@@H](CCC(N)=O)C(=O)N[C@@H](C)C(=O)N[C@@H](CCC(=O)O)C(=O)N[C@@H](CCCCN)C(=O)N[C@@H](CC(N)=O)C(=O)N[C@@H](CCCCN)C(=O)N[C@@H](CCC(N)=O)C(=O)N[C@H](C(=O)N[C@@H](CC(C)C)C(=O)N[C@@H](C)C(=O)N[C@@H](CCC(N)=O)C(=O)N[C@H](C(N)=O)C(C)C)[C@@H](C)CC)[C@@H](C)CC)[C@@H](C)CC)C(C)C)C(C)C
B4: SEQ ID NO: 23 (peptide)
peptide: IVLSLD[dV]PTKLK([γGlu-Palmitoyl])QKLLKQERQRKER[Aib]QAEKNKRILERV-NH2
modifications: N-terminus assumed
SMILES: CCCCCCCCCCCCCCCC(=O)N[C@@H](CCC(=O)NCCCC[C@H](NC(=O)[C@H](CC(C)C)NC(=O)[C@H](CCCCN)NC(=O)[C@@H](NC(=O)[C@@H]1CCCN1C(=O)[C@H](NC(=O)[C@H](CC(=O)O)NC(=O)[C@H](CC(C)C)NC(=O)[C@H](CO)NC(=O)[C@H](CC(C)C)NC(=O)[C@@H](NC(=O)[C@@H](N)[C@@H](C)CC)C(C)C)C(C)C)[C@@H](C)O)C(=O)N[C@@H](CCC(N)=O)C(=O)N[C@@H](CCCCN)C(=O)N[C@@H](CC(C)C)C(=O)N[C@@H](CC(C)C)C(=O)N[C@@H](CCCCN)C(=O)N[C@@H](CCC(N)=O)C(=O)N[C@@H](CCC(=O)O)C(=O)N[C@@H](CCCNC(=N)N)C(=O)N[C@@H](CCC(N)=O)C(=O)N[C@@H](CCCNC(=N)N)C(=O)N[C@@H](CCCCN)C(=O)N[C@@H](CCC(=O)O)C(=O)N[C@@H](CCCNC(=N)N)C(=O)NC(C)(C)C(=O)N[C@@H](CCC(N)=O)C(=O)N[C@@H](C)C(=O)N[C@@H](CCC(=O)O)C(=O)N[C@@H](CCCCN)C(=O)N[C@@H](CC(N)=O)C(=O)N[C@@H](CCCCN)C(=O)N[C@@H](CCCNC(=N)N)C(=O)N[C@H](C(=O)N[C@@H](CC(C)C)C(=O)N[C@@H](CCC(=O)O)C(=O)N[C@@H](CCCNC(=N)N)C(=O)N[C@H](C(N)=O)C(C)C)[C@@H](C)CC)C(=O)O
B5: SEQ ID NO: 182 (peptide)
peptide: IVLSLD[dV]PIKLK(C18 diacid)QILLKQERQK[Aib]QREQAEKNKQILAQV-NH2
modifications: N-terminus assumed
SMILES: CC[C@H](C)[C@H](N)C(=O)N[C@H](C(=O)N[C@@H](CC(C)C)C(=O)N[C@@H](CO)C(=O)N[C@@H](CC(C)C)C(=O)N[C@@H](CC(=O)O)C(=O)N[C@@H](C(=O)N1CCC[C@H]1C(=O)N[C@H](C(=O)N[C@@H](CCCCN)C(=O)N[C@@H](CC(C)C)C(=O)N[C@@H](CCCCNC(=O)CCCCCCCCCCCCCCCCC(=O)O)C(=O)N[C@@H](CCC(N)=O)C(=O)N[C@H](C(=O)N[C@@H](CC(C)C)C(=O)N[C@@H](CC(C)C)C(=O)N[C@@H](CCCCN)C(=O)N[C@@H](CCC(N)=O)C(=O)N[C@@H](CCC(=O)O)C(=O)N[C@@H](CCCNC(=N)N)C(=O)N[C@@H](CCC(N)=O)C(=O)N[C@@H](CCCCN)C(=O)NC(C)(C)C(=O)N[C@@H](CCC(N)=O)C(=O)N[C@@H](CCCNC(=N)N)C(=O)N[C@@H](CCC(=O)O)C(=O)N[C@@H](CCC(N)=O)C(=O)N[C@@H](C)C(=O)N[C@@H](CCC(=O)O)C(=O)N[C@@H](CCCCN)C(=O)N[C@@H](CC(N)=O)C(=O)N[C@@H](CCCCN)C(=O)N[C@@H](CCC(N)=O)C(=O)N[C@H](C(=O)N[C@@H](CC(C)C)C(=O)N[C@@H](C)C(=O)N[C@@H](CCC(N)=O)C(=O)N[C@H](C(N)=O)C(C)C)[C@@H](C)CC)[C@@H](C)CC)[C@@H](C)CC)C(C)C)C(C)C
B6: SEQ ID NO: 183 (peptide)
peptide: IVLSLD[dV]PIKLK(C18 diacid)QILLKQARQK[Aib]QRAQAEKNKRILERV-NH2
modifications: N-terminus assumed
SMILES: CC[C@H](C)[C@H](N)C(=O)N[C@H](C(=O)N[C@@H](CC(C)C)C(=O)N[C@@H](CO)C(=O)N[C@@H](CC(C)C)C(=O)N[C@@H](CC(=O)O)C(=O)N[C@@H](C(=O)N1CCC[C@H]1C(=O)N[C@H](C(=O)N[C@@H](CCCCN)C(=O)N[C@@H](CC(C)C)C(=O)N[C@@H](CCCCNC(=O)CCCCCCCCCCCCCCCCC(=O)O)C(=O)N[C@@H](CCC(N)=O)C(=O)N[C@H](C(=O)N[C@@H](CC(C)C)C(=O)N[C@@H](CC(C)C)C(=O)N[C@@H](CCCCN)C(=O)N[C@@H](CCC(N)=O)C(=O)N[C@@H](C)C(=O)N[C@@H](CCCNC(=N)N)C(=O)N[C@@H](CCC(N)=O)C(=O)N[C@@H](CCCCN)C(=O)NC(C)(C)C(=O)N[C@@H](CCC(N)=O)C(=O)N[C@@H](CCCNC(=N)N)C(=O)N[C@@H](C)C(=O)N[C@@H](CCC(N)=O)C(=O)N[C@@H](C)C(=O)N[C@@H](CCC(=O)O)C(=O)N[C@@H](CCCCN)C(=O)N[C@@H](CC(N)=O)C(=O)N[C@@H](CCCCN)C(=O)N[C@@H](CCCNC(=N)N)C(=O)N[C@H](C(=O)N[C@@H](CC(C)C)C(=O)N[C@@H](CCC(=O)O)C(=O)N[C@@H](CCCNC(=N)N)C(=O)N[C@H](C(N)=O)C(C)C)[C@@H](C)CC)[C@@H](C)CC)[C@@H](C)CC)C(C)C)C(C)C

The binders below were run against human corticotropin-releasing factor 2α (CRF2 α receptor) (human), Q13324 (assay: cell-based or functional assay).
human corticotropin-releasing factor 2α (CRF2 α receptor) (human), Q13324, sequence (Q13324 20-411): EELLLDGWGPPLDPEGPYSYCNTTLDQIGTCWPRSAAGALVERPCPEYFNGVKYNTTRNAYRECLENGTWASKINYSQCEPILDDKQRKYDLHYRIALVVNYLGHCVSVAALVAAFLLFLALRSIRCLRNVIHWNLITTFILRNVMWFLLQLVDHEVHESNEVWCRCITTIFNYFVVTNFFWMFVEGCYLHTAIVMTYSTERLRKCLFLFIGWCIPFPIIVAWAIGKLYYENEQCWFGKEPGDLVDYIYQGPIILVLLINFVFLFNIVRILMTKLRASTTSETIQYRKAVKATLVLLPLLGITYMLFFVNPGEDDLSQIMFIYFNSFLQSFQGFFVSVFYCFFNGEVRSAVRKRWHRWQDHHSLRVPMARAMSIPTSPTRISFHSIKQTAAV

| EC50 [nM], 0% HSA [nM] | EC50 [nM], 0.1% HSA [nM] | Binder |
| --- | --- | --- |
| 6.85 |  | IVLSLD[dV]PTKLK([AEEA-AEEA-γGlu-C20 diacid])KKLLKQERKR[Aib]EREKAEKAARILERV-NH2 [SEQ ID NO: 224] |
| 0.12 |  | B1 |
| 0.01 |  | B2 |
| 0.05 | 2.83 | B3 |
| 0.02 |  | B4 |
| 0.03 | 3.13 | B5 |
| 0.12 | 1.58 | B6 |
